The values below come from patent US20190233493A1 (Sanofi, published 2019).

*1 amine or outer side, *2 acyl side, *3 side chain or, on linkers, in order; H or OH if unused. Primed or numbered codes have the meaning given here. Side-chain parts run from the residue outwards. [ ]: non-standard residue; d: D form. The star is where a group is joined. PEG28′ = polyethylene glycol spacer with 28 ethoxy units (aminoethoxy-ethoxy chain); PEG24′ = polyethylene glycol spacer of 24 ethoxy units; PEG12 = NCCOCCOCCOCCOCCOCCOCCOCCOCCOCCOCCOCCOCCC(=O)O; γGlu = O=C(O)[C@H](CCC(=O)[*:2])N[*:1]; Stearoyl = CCCCCCCCCCCCCCCCCC(=O)*; Palmitoyl = CCCCCCCCCCCCCCCC(=O)*; Nle = CCCC[C@H](N)C(=O)O; Aib = CC(C)(N)C(=O)O

In assay [1] the target is T1, RXFP1 receptor (UniProt Q9HBX9 1-757, limits assumed).
T1 sequence (looked up): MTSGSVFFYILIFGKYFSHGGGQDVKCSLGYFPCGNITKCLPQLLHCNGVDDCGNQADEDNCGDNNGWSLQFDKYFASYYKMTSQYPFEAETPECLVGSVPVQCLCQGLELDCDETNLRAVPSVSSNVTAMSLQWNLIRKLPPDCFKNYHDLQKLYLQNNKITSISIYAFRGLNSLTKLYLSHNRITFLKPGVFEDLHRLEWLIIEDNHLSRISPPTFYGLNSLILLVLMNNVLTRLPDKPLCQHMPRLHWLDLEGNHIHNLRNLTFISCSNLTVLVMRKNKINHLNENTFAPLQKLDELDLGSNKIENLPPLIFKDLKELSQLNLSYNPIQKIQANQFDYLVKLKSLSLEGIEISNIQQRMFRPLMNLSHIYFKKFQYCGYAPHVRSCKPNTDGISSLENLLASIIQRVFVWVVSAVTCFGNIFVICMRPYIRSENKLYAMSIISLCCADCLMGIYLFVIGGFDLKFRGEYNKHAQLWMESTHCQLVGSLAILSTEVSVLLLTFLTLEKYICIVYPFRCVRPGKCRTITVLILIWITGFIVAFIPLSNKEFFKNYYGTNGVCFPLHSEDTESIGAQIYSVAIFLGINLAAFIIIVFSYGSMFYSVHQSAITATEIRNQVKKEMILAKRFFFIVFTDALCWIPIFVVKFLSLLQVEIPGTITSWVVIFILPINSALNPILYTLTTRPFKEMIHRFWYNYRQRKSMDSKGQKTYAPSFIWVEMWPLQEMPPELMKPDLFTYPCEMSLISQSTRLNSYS
The assay is described as follows: cell-based or functional assay.

For assay [2], the target named is T1, RXFP1 receptor. The assay is described as follows: cell-based or functional assay. The source holds these as a separate data set.

With Ac-LEGREKVRAK(Ac)I[Aib][Aib]EG[Nle]STWS[Aib]RKK(Ac)[PEG28′]K([γGlu-γGlu-γGlu-Stearoyl])-NH2 [peptide of SEQ ID NO: 49], in the assay with RXFP1 receptor [1], the “EC50 (nM), OVCAR 5 cells (cAMP)” value amounted to 1.65 nM and the “EMax, OVCAR 5 cells (cAMP)” value is 106%.
As for H-VIKLSGRELVRAQIAISGMSTWSKRSL-NH2 [B7-33 C11.23S], in the assay with RXFP1 receptor [2], the “EC50 (nM), cAMP assay in OVCAR 5 cells” value was 1640 nM and the “Emax, cAMP assay in OVCAR 5 cells” value was found to be 90%.
Regarding Ac-VIKLSGRELVRAQIAISGMSTWSKRSL-NH2 [AcB7-33 C11.23S], in the assay with RXFP1 receptor [2], the “EC50 (nM), cAMP assay in OVCAR 5 cells” value was determined as 929 nM and the “Emax, cAMP assay in OVCAR 5 cells” value came out at 70%.

B1: peptide of SEQ ID NO: 46 (peptide)
peptide: Ac-LEGREKVRAK(Ac)I[Aib][Aib]EG[Nle]STYS[Aib]RKK(Ac)[PEG12]K([γGlu-γGlu-γGlu-Stearoyl])-NH2
SMILES: CCCCCCCCCCCCCCCCCC(=O)N[C@@H](CCC(=O)N[C@@H](CCC(=O)N[C@@H](CCC(=O)NCCCC[C@H](NC(=O)CCOCCOCCOCCOCCOCCOCCOCCOCCOCCOCCOCCOCCNC(=O)[C@H](CCCCNC(C)=O)NC(=O)[C@H](CCCCN)NC(=O)[C@H](CCCNC(=N)N)NC(=O)C(C)(C)NC(=O)[C@H](CO)NC(=O)[C@H](Cc1ccc(O)cc1)NC(=O)[C@@H](NC(=O)[C@H](CO)NC(=O)[C@H](CCCC)NC(=O)CNC(=O)[C@H](CCC(=O)O)NC(=O)C(C)(C)NC(=O)C(C)(C)NC(=O)[C@@H](NC(=O)[C@H](CCCCNC(C)=O)NC(=O)[C@H](C)NC(=O)[C@H](CCCNC(=N)N)NC(=O)[C@@H](NC(=O)[C@H](CCCCN)NC(=O)[C@H](CCC(=O)O)NC(=O)[C@H](CCCNC(=N)N)NC(=O)CNC(=O)[C@H](CCC(=O)O)NC(=O)[C@H](CC(C)C)NC(C)=O)C(C)C)[C@@H](C)CC)[C@@H](C)O)C(N)=O)C(=O)O)C(=O)O)C(=O)O
With B1, in the assay with RXFP1 receptor [1], the “EC50 (nM), OVCAR 5 cells (cAMP)” value was 0.61 nM and the “EMax, OVCAR 5 cells (cAMP)” value was determined as 79%.
With Ac-VIKLSGRELVRAQIAISGMSTWSKKKK-NH2 [KKKK(AcB7-29 C11.23S)], in the assay with RXFP1 receptor [2], the “EC50 (nM), cAMP assay in OVCAR 5 cells” value came to 206 nM and the “Emax, cAMP assay in OVCAR 5 cells” value stood at 84%.
For Ac-LEGREKVRAQI[Aib][Aib]EGMSTWS[Aib]RK[PEG24′]K([γGlu-γGlu-γGlu-Palmitoyl])-NH2 [peptide of SEQ ID NO: 47], in the assay with RXFP1 receptor [1], the “EC50 (nM), OVCAR 5 cells (cAMP)” value was 2.56 nM and the “EMax, OVCAR 5 cells (cAMP)” value came out at 100%.
On to Ac-LEGREKVRAK(Ac)I[Aib][Aib]EG[Nle]STWS[Aib]RKK[PEG28′]K([γGlu-γGlu-γGlu-Stearoyl])-NH2 [peptide of SEQ ID NO: 48], for which, in the assay with RXFP1 receptor [1], the “EC50 (nM), OVCAR 5 cells (cAMP)” value was 0.25 nM and the “EMax, OVCAR 5 cells (cAMP)” value was 99%.
